Data published in EP3440111B1 (Fondazione Luigi Maria Monti, dated 2023).

Legend:
[1] = biological target: T1, chimeric protein rhVEGFR-1/Fc (human, UniProt P17948 27-758); assay: Western blotting
T1 construct: extracellular domain;domain: Fc region; Bought from R&D Systems; also called sVEGFR-1/Fc; not shown: Fc region of human immunoglobulins

[2] = biological target: T2, sVEGFR-1 (soluble VEGFR-1) (Homo sapiens (Human), UniProt P17948 27-656); assay: ELISA on plates coated with a soluble form of VEGFR-1
T2 construct: Bought from RELIATech; also called soluble form of VEGFR-1
T2 sequence (P17948 other isoform, or with tags, fused parts or gaps limits assumed): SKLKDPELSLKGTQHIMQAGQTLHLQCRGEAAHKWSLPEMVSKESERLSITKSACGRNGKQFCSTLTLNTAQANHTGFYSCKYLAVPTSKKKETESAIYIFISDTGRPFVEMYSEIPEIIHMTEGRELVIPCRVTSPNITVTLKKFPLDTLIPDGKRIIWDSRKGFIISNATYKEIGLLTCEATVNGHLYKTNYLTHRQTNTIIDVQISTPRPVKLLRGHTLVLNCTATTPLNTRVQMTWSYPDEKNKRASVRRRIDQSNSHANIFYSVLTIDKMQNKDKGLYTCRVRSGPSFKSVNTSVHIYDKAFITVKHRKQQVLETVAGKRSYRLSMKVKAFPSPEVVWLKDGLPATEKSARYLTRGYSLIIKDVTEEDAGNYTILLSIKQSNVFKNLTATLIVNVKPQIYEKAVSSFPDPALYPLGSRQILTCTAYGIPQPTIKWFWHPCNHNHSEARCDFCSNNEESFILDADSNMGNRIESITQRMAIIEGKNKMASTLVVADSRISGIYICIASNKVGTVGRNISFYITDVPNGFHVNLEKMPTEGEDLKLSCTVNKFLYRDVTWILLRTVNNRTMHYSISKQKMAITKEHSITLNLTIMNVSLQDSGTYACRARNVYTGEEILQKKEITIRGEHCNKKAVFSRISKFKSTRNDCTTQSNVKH

T1 sequence (P17948 27-758, stated change not applied): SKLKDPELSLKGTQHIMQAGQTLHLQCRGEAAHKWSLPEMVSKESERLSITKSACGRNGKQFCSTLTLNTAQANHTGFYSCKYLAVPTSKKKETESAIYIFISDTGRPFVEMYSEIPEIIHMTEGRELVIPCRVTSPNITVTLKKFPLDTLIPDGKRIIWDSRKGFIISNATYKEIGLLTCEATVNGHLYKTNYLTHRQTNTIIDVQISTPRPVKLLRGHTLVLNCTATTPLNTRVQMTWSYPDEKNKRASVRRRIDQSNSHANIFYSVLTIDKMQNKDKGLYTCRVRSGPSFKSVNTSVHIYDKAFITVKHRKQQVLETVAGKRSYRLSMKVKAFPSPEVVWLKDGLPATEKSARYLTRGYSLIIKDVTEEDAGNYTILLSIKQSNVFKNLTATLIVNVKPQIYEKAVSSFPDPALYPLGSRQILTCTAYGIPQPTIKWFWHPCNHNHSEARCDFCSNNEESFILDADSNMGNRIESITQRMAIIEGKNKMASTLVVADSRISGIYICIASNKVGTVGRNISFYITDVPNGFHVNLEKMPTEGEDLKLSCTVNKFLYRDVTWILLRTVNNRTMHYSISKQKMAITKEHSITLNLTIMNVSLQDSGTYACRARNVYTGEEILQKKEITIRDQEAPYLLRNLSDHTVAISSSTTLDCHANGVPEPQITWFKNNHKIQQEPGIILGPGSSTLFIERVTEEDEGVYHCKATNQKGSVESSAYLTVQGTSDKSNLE

binding result [1]: binds
binding result [2]: binds
B1: monoclonal antibody D16F7 (antibody, V domains shown)
VH: QVQLQQPGSELVRPGASVKLSCKASGYIFTNYWMHWVKQRPGQGLEWIGEIYPRNGNTNYDEKFKGKATLTIDTSSSTAYMQLSSLTSEDSAVYYCATYLGDYWGQGTTLTVSS
VL: DVLMTQTPLSLPVSLGDQASISCRSSQSIVHSNGNTYLEWFLQKPGQSPKLLIYKVSNRFSGIPDRFSGSGSGTDFTLKISRVEAEDLGVYFCFQGSHVPYTFGGGTKLEIK
notes: Mouse IgG1 from a hybridoma (BALB/c mice immunized with peptide A4 as a MAP); also called D16F7 mAb; mAbD16F7
